Consider 22 sequences from the DeepSol protein solubility set.

The nature of the data set: soluble on expression in E. coli; label from the status in PepcDB or PDB records.
As to “MAHHHHHHMAFTDAVAGKTSLPPPVAIIVGHNIDASAMPLTYERNRLVIDMLQHYACPVFSHKKSGDAMNTVSSDVFEWVLEPLPVVGVEDMTAFHDRAYLNYLSIREALSEVDERASTVKRSRAEGIQPPVSRRSSAQNQPPLRVLPDLVPIPTDEEYGLVNENMPFVGMWRTIQATVSGTLLAARLLAQPGRFAAIHWFGGRHHAKQSTAGGFCFANDVVLGVLELKKLLSSDKKGILVVDVDAHHGDGTQSAFLHDNSVLTLSMHAHGVGIFPGSGGIEEIGAGLGRGFTMNVPLPEGATDILAVTLMYRSIHFAFKKLGEGLAAIVIVCGSDALSGDPLGALNLTVGGMQSIIRLLLKEAARRSLKVLLLGGGGYVDTSCARLAGVVTKDVLSCAAAMRLGKTEYFGDSANLGDNLGVAVPEGCEYFTRYGPSFLMHGLPPARVSKLYRLPYGSPLFMRMQRAATKEALRRRRNQEQDEEEEEEEEEEEEEEEEEEEEEEEEEVEEEEGEGEEEA”, the “soluble on expression in E. coli” value is given as “not soluble”.

“MGNARGFLDFKRMDFKKIAPKERILNYKEFTIPLDKKEQEVQGGRCMDCGVAFCHTGVMSEGKDVGCPLNNLIPEWNDLVYRSLWKEAYERLDLTNPFPEFTGRVCPAPCEDSCVCAINGVSVSIKNNELSIIENAFKENLVRVNKPKQYNGKKIAVIGSGPAGLACANTLNSLGYKVSVFERSDKIGGLLMYGIPDMKLDKSIVQRRVDLLKKSGIEFKVNENIDSKDKVSKLLKEFDALVLCTGASKPIDLDIEGRKLKGVEFALDFLTQNTKTLLKTGKGADMAKGKNVLVIGSGDTSVDCIAVATRQGAKSIVRFERSPKRPLQRSQNNPWPLKADIFTTDYGLEEAIAVYGKDPREYQKMTKKFLGKTHVEGVEANDLKREFKEGKAINVEISNSKKTYKADLVLLAMGFSGCEEAISKNFGVKLDEKNNISTENFQTTHKKIFACGDARKGQSLVVWAIKDGIECALSLHQNLAKLEHHHHHH”: the “soluble on expression in E. coli” value is reported as “not soluble”.

“PKATAQMEGRLQEFLTAYAPGARLALADGVLGFIHHQIVELARDCLAKSGENLVTSRYFLEMQEKLERLLQDAHERSDSEEVSFIVQLVRKLLIIISRPAR”: the “soluble on expression in E. coli” value is recorded as “soluble”.

Turning to “MTVGVGGSTPAQALERLRNMMDGAQPIGLASYRARIAAAQAWMGEHGIAAAYLHAGSNLRYFSGVQWHPSERLVGALLPAEGALEYLAPAFEEGTVRDFQVVDGAIHTWEEHQDPYRLLLDRLEALGVGERSTVALCPSLPFGMFERLRQQAPGRNFVSAAPLIDQGRMRKSAEELALMQRAKDMTLEVQKAAASILREGISTTEVAEFIHQAHRKVGAPGSTFCIVLFGAASAFPHGVKHAQVLKDGDMVLIDTGCQVHGYQSDITRSYVFGTPSARQREFWGMERDAQLAAFEAARLGQPCEAVDAAARRSLEANGLGPDYRLPGLPHRTGHGIGMDVHEGPYLVRGDRTPLDVGMCFSNEPMICVPGEFGIRLEDHFYMTKEGPRWFT”, the “soluble on expression in E. coli” value is given as “not soluble”.

For the sequence “KSIRLAKEKESQADYISTYVEWQYIDKNITQCFDKMTNMKLEVAWKAKKKDTVVQIHNQDFTVDLSTNTATAPQGQTFTVQRLVKA”, the “soluble on expression in E. coli” value is recorded as “soluble”.

Regarding “MEELGYVTDAEINAKLAELKGKVPSVVINELREKLMAKKDSLTPRQLDEIVKRVLEAYGSQAAKYEQISKRVDELGKKLSDLSSQLARLVEALEEKKFAVHEKKAEAVAEKAAEVSEKIEKIEEMLEEKPRKSEIEKKLEELHRKIEELSERVAKEKVEETKARIEELEEKIAKGEEIKPEEIKEIEEEVEELGEFEEAPVEEIVVEEEKPPEPVEEVPVVEEKKEEVIEEVPVEEVVEEEKVPSHVVEEEKVEEEGGREMAEKMKIPEDIASLLFEEEPRKARLEEIPDDVVSIMIALKWLGFLIDRVGIQNLEKVLEFYYDIGWISEKVFNQLLRFAKGTRPHHRDPEWKPAEKLTVQDHLISLLFIERLRGLRITRDVLDKLEREIKMLEKTLDEFYGV”, the “soluble on expression in E. coli” value was “not soluble”.

Consider “MSLGAALSDTNYAVIYDLHSHTTASDGLLTPETLVHRAVEMRVGTLAITDHDTTAAIPAAREEISRSGLALNLIPGVEISTVWENHEIHIVGLNIDIAHPAMRDFLAQQTERRQARGRLIAERLEKAHIPGAWEGALRLANGGAVTRGHFARFLVECGKAATMADVFKKYLARGKTGYVPPQWCTIEQAIDVIHHSGGKAVLAHPGRYDLSAKWLKRLVAHFADHHGDAMEVAQCQQSPNERTQLATLARQHHLWASLGSDFHQPCPWIELGRKLWLPAGVEGVWQTWEQPQISEGHHHHHH”, for which the “soluble on expression in E. coli” value is reported as “soluble”.

Regarding “LRLWALTATECRLLLSTRWNVGRLYQLPVAASAEFASYQTQRDQLRQTFKNIASEILNPDDPRTDLPFHIALSVIEMRSNDGVVPEPLRDDE”, the “soluble on expression in E. coli” value is “not soluble”.

Take “MSLDFAKQGPIVIGGVGGSGTRLIAEIVMDMGFYLGGMLNQSKDLLYFSLLFKRPTWFSKVVTSNEQEIFRGLKILENRLTTQKELTGKDIKFIEKAAQTYRNGDLLAQKIKKNMLFPDPINRQLYRGWGWKEPNAHLFLPYIHRYFPNGKYIHVIRNGLNMAFSKNQQQLFNWGPLFGVTIPNNPMKIPNASLTYWIKANERAVMYGTEQMKGRFLLIQFDQLCVNPTPQLQKLAEFLAVDDLAIDEWSEKIDPAAAASKYKEGHHHHHH”: the “soluble on expression in E. coli” value is “soluble”.

Consider “MCGRIAQKSAPEDYVEILWPNARLIFDDVAGPRYNIPPGTKPLTMHRLAGGFEVDRQWWTWRPSGSKYAMNCARLDKILGNKWPWKLLTARGRILVPADGWYEWKALDSSPKPAKQPYFIHGAGPLLFAGLSAWRPGAEMDEAHGFAIVTDDAQGGMVDVHDRRPVALPPELAREWVDPATPVARAMEILRAGLPETAFSWHPVRQEVGSSKYQLPDAIDPILEHHHHHH”, for which the “soluble on expression in E. coli” value is “soluble”.

For “MGSDKIHHHHHHMMGYNLTTPFLIYQWNFPMFPWDQIDTVLLDMDGTLLDLHFDNHFWLSLVPGTLSRMHGISAEAATSHVRAAYDKVAGTLEWYCLDYWERELGLDIMALHRTLVDRIQLRQDSMPFLTALADAGKRRILLTNAHPNSLALKLEHTELASGLDEMLSSHQTGHPKESPLFWQAVFARFELNPRRCLFIDDSEAILLAAKHAGVGFQLGISNPDSQQPNKVFHDFPAIHDYRLLLNE”, the “soluble on expression in E. coli” value is “not soluble”.

As for “RVASNLDNKARVTELFKSAYSILTEVEKMAVEGKMPEEEAKALATRLLRNNIYKDNEYVYVADENMMFIAAPLDPQLHGTSFHDFKDGSGNSVGQ”, the “soluble on expression in E. coli” value is “not soluble”.

Consider “MSLVDHVHFERELTLLKSDVSKMLFLVSESLNDAIESLETMNETLARKVLESDDMIDELNREIEEKAYQIIARYNPILKQLRYIITILKFSNDLERIGDLSCNIAEKCLFLSEEKIKFEMLKELKDMFGSTLKVVQDAFKAFVEEDVDLAFRLWKFDDVIDEMEKKIRRIVVERIREGNISAELALVYILIARDLERVGDHANNLCEEVIYIETGKNMKEFLRGVESGSEGADSEGGSHHHHHH”, for which the “soluble on expression in E. coli” value is reported as “soluble”.

“SNSLHWPTSLPSGDAFSSVGTHRFVQKVEEMVQNHMTYSLQDVGGDANWQLVVEEGEMKVYRREVEENGIVLDPLKATHAVKGVTGHEVCNYFWNVDVRNDWETTIENFHVVETLADNAIIIYQTHKRVWPASQRDVLYLSVIRKIPALTENDPETWIVCAFSVDHDSAPLNNRCVRAKINVAMICQTLVSPPEGNQEISRDNILCKITYVANVNPGGWAPASVLRAVAKREYPKFLKRFTSYVQEKTAGKPILF”: the “soluble on expression in E. coli” value was “soluble”.

With “MERKWIKKKAHIVPTHAMYGLAQVLKDIGIDVISLVNYALNLHDYHYNGFEPGFSRYSKKEEVFRDLITLVKETRKVIDIYYSKYEVKEILGKINELIKELTEGNKLEHHHHHH”, the “soluble on expression in E. coli” value is on record as “not soluble”.

Turning to “MKITDLRCAVIGKHPIVRIVTDEGLHGLGEVEFTKTYLKPFVLHFREALIGEDPTDVERVMLKIRQRGSFKPYGAAVSAIEHALWDIAGKAAGVPVYKLLGGKVRDKVRVYNGSIRRKRAGDRPEDYAADVKWMMEQPQNFFMVKQGISFHSNMKDSIEGFHYGVTQKKAGYHGAMDQGVISERGFNHMLDCVIAMKEVLGDKVSLALDCGPGWMLPDAIKFARAVEKYNLMWLEDMLTGDYVPWVNPQAYRELTTSTSTPIHTGEQIYLRHNFKELIETQAVRVIGPDPADIGGIAELKWVAEHAYMHSILMAPHGTANGLLGLGALINVCATLPANYVAFEYPSASDPWWEDLVIGLPAQIVRDSMVDLLEAPGLGLDIDAEAARKYLGEEDAGFFD”, the “soluble on expression in E. coli” value is “not soluble”.

“SSQFWYSEETASRLAEELLQQAGEHGRIACLSAPSVYQKLKQLESVRSDGVSAVLLEFDRRFAAYGDEFVFYDYNNPLCLPEDLLPQSFDIVIADPPYLSEECLSKVTLTVKHLTKGKILLCTGAIMEEHAGKLLDLKMCSFLPRHNHNLANEFRCYVNYESRLLS”: the “soluble on expression in E. coli” value is “soluble”.

As to “MSLSNYSTGELAKLCNVTTRTIQYYDRKGILKPQGFTEGKRRVYTEQQRQTLELILLLKDLGCALSDIDMLLKGEGTLKTLNTLLTMKQQEINQQVKQQQAVLNKIKNVQYYVNEGHHHHHH”, the “soluble on expression in E. coli” value is “not soluble”.

Regarding “MIKPVGSDELKPLFVYDPEEHHKLSHEAESLPSVVISSQAAGNAVMMGAGYFSPLQGFMNVADAMGAAEKMTLSDGSFFPVPVLCLLENTDAIGDAKRIALRDPNVEGNPVLAVMDIEAIEEVSDEQMAVMTDKVYRTTDMDHIGVKTFNSQGRVAVSGPIQVLNFSYFQADFPDTFRTAVEIRNEIKEHGWSKVVAFQTRNPMHRAHEELCRMAMESLDADGVVVHMLLGKLKKGDIPAPVRDAAIRTMAEVYFPPNTVMVTGYGFDMLYAGPREAVLHAYFRQNMGATHFIIGRDHAGVGDYYGAFDAQTIFDDEVPEGAMEIEIFRADHTAYSKKLNKIVMMRDVPDHTKEDFVLLSGTKVREMLGQGIAPPPEFSRPEVAKILMDYYQSINS”, the “soluble on expression in E. coli” value is listed as “soluble”.

With “MGSDKIHHHHHHMWSFKSMFNTPEDPEKDAYEFYGKVQPGITTPTQKTCNFVALDLKSKDRDAIKAMFKKWTVMADRMMDGDTVGKTSNNPLMPPVDTGESIGLGASKLTITFGISKSLMKKIGLSSKIPDAFKDLPHFPNDQLIDDYSDGDIMIQACSNDSQVSFHAVHNLVRPFRDIVKVRWAQSGFISAKGKETPRNLMAFKDGTINPRKSNQLKDYVFIDDGWAKHGTYCVVRRIQIHIETWDRTALEEQEATFGRKRHSGAPLTGGKEFDEIDLKAKDSHGEYIIDKDAHTRLAKEANTSILRRAFNYVDGTDDRTGNFETGLLFIAFQKATKQFIDIQNNLGSNDKLNEYITHRGSASFLVLPGVSKGGYLGETLFD”, the “soluble on expression in E. coli” value is on record as “not soluble”.

For the sequence “MVQEIIVDSGDIEFLTTPKEYKQQLLSLIECARQRIFITALYLQDDEAGREILHALYQAKANFPTIEINIFVDFNRGQRGLIGEKASLGNRALYLKLAHEYPHTVNIYGVAVKRKEVFGVLHLKGMVFDEKLFYTGASINDIYLHQGERLEHHHHHH”, the “soluble on expression in E. coli” value was “not soluble”.

Regarding “MAKTPVLLDRWGKPVKRAVLTEEISAATLGSVRSPITGYPADGLNPVRLASILREADAGDPVRYLELAETIEERDLHYLGVLGTRRRSVSQLDITVEAASDDPRDVEIADMIRDWLTRDELSDELFHMLDCIGKGYSFTEIIWDTSEGQWRPARLEWRDPRWFRFDRAALTTPLMLGPHGEELELTPFKFIFAEVKAKSGIALRSGLARAAAWAWMFKAFTQRDWAIFTQTYGQPLRLGRYGPGASEDDKATLFRAVANIAGDCAAIIPESMAIDFVETKSVGATADLYKQRADWLDQQISKAVLGQTATTDAVTGGLGSGKEHRQVQEDIERADAKALSGILNRDLIRPWVDLEYGPQARYPRLKIARPEPEDLKAMAEALAALVPIGLRVSQKKTRDRFGFDEPENDADVMGGTPAAAAVAAPPGADRPIKRFSGVFKGGEPPARPETALQAEAAPAALPASDDPAALLADRLAADAAPAMGAMIERVETMLAAAGSLAEFREMLLAGFPGIDAGDLATLMAQAMMAAHAGGRAAAEDAGA”, the “soluble on expression in E. coli” value is recorded as “not soluble”.
